Earlier results on two substances are cited in PMC7088015.

Like-named read-outs stand apart in the source and are kept apart here.

Common to all, as to conditions: free dipeptide in solution (not further stated)
Series [1] relates to Cterm (position 1, -----H-----). Nature of the series: not stated.
The subject of series [2] is His2 (position 1, -----H-----). Nature of the series: not stated.
Series [3] has as its system Nterm. Nature of the series: not stated.
Series [4] concerns Cterm.
Series [5] deals with Nterm.

For “Carnosine (beta-alanyl-L-histidine) (natural dipeptide of vertebrate skeletal muscle (discovered in cattle, Bos taurus); source of the titrated material not stated)”, the pKa in series [1] is 2.77; in series [2], 6.83; in series [3], 9.66.
Turning to “Anserine (beta-alanyl-1-methyl-L-histidine) (natural dipeptide of skeletal muscle of birds, fish and cattle (first identified in goose muscle); source of the titrated material not stated)”, the pKa is on record as 2.64 in series [4] and 9.49 in series [5].
